Experimental findings from article PMC6224603, “Membrane association and remodeling by intraflagellar transport protein IFT172” (Nature Communications, 2018) are described below.

The target of the experiment is T1, Chlamydomonas IFT172 (intraflagellar transport protein 172), recombinant full-length, C-terminal His-tag (Chlamydomonas reinhardtii, UniProt Q5DM57 1-1755).
T1 construct: Gene synthesised or sub-cloned into MCS2 of the pFL vector; no removal of the His-tag is described; The detergent-free monomer was used in the liposome sedimentation assays; also called IFT172-His tag; IFT172 monomer; source: HighFive insect cells (baculovirus), purified (His60 Ni Resin, SEC on Superose 6; with 0.1% DDM for the monomer, or with HiTrapQ-Sepharose anion exchange for the …)
The experiment in a line: co-sedimentation; liposome co-sedimentation: IFT172 with Folch fraction I MLV and rising amounts of IFT57; 20 mM Hepes, 150 mM NaCl, pH 7.5, 15 min on ice, 135,000 xg for 20 min, supernatant and pellet by SDS-PAGE; binding of IFT57 to IFT172 is read from the loss of IFT172 from the liposome pellet. The note with it: both partners purified.

T1 sequence (Q5DM57 whole entry): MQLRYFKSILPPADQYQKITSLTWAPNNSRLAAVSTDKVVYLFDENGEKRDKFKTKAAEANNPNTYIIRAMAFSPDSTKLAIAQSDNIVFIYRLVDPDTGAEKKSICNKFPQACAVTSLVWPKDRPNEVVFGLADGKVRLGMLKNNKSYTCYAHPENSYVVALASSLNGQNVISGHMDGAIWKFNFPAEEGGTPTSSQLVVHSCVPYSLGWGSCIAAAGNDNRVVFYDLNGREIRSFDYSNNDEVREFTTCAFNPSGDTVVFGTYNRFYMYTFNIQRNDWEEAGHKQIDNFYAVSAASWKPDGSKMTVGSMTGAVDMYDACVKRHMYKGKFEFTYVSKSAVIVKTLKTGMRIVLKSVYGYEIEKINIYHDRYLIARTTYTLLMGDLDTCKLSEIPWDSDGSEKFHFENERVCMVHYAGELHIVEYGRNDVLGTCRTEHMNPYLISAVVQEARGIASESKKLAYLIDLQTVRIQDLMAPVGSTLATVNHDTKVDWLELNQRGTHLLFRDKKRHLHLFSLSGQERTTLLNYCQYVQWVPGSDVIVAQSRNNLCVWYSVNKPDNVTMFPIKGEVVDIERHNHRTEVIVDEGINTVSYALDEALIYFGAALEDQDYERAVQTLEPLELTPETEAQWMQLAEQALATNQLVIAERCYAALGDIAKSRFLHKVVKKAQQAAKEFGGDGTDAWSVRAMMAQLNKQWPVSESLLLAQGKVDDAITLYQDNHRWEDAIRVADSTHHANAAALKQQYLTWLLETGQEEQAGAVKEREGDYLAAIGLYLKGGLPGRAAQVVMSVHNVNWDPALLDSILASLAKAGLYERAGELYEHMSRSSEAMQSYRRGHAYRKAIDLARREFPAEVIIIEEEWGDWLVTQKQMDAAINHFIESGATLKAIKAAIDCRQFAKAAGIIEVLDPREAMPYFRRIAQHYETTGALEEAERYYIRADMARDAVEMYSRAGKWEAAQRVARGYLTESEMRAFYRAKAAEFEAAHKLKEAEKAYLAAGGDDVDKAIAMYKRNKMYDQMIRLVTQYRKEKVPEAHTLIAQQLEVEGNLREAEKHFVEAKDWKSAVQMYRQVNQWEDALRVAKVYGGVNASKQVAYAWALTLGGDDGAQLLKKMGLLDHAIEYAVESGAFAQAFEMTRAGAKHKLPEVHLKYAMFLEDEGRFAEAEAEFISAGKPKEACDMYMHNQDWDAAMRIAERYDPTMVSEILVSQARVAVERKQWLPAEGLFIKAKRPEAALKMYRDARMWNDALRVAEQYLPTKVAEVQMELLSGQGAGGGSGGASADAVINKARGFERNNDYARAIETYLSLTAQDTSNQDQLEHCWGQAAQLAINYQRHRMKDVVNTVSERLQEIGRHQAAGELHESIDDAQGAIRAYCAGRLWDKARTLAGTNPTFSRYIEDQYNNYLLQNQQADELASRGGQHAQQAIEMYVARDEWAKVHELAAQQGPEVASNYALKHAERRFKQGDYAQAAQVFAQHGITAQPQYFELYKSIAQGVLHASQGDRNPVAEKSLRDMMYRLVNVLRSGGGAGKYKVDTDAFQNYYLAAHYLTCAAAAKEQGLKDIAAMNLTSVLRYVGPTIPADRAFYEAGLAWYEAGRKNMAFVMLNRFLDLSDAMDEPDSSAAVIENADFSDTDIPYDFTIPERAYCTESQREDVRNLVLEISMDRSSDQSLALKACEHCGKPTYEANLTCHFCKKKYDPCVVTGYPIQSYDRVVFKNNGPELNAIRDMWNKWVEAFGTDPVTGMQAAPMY

B1: Chlamydomonas IFT57 (intraflagellar transport protein 57), full-length (natural protein, UniProt Q2XQY7 1-469, looked up)
chain: MSSKRGGRSSLAKAPEEAVNGEAFAPEASPPPPGDDGDAGGEDGGAPAPPPPPATKGGPVAVGRSLEIQTTPDVCMEMLADKLKLLNYEADFCRKKKPYRKPLSRLYFAVPLANSSEQFFYFTSLATWLLGLAGVELPAPKEFDDPNLTCQNILGAVKKLGFAPPSYHPTKLTVGNGKEVVGVLDGLVDFVLERRHHKYSRPAYGNDGQPEEGVQLDDEAEAAAMEGADELAMPAQNQADDDEEEEGVYVDPGRGDAAGPGTGASAAMDAEKAVLVSKVDPTLWKIELERVAPKLRITIAADSKDWRSHLDEAHQHKEVISKAWPDSKTSLERLRADLNGTLEKLQTREKFLNEQFESLMQQYRAARTTFTDVQETYNRKTEAVADRNQEMHRIGETLEEVKAMMDEKGSNIADATPVARIKTAIKQLNKELHDMEVRIGVVSHTLLQLSLRNKRLLQAQAALSDEEED
notes: IFT57 from Chlamydomonas, full length, cloned into the pEC vector; source: E. coli BL21 (DE3), purified (Ni-NTA, TEV cleavage, HiTrapQ-Sepharose, SEC); not shown: His tag, N-terminal, cleaved
Consider B1, for which the binding result is “binds”.
